Test results as given in patent publication US20070048801A1.

Target: CXCR3 from Mus musculus (NCBI accession no. NP_034040) (Mus musculus) (UniProt O88410)
Assay: cell-based or functional assay

UniProt O88410, sequence (O88410 whole entry): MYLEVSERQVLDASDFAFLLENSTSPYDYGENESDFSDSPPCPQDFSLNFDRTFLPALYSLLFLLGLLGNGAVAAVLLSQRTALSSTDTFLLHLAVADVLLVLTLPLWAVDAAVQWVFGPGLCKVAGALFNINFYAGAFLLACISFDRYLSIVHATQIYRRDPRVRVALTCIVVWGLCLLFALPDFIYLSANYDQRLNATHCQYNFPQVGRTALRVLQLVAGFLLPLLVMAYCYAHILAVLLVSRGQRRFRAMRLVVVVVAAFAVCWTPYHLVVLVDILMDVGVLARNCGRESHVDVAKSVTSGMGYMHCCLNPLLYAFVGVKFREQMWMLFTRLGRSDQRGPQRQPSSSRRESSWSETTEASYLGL

- TEER, WT mouse intestinal segments (n=10), baseline: 24.1
- TEER, WT mouse intestinal segments (n=10), post-gliadin exposure: 14.7
- zonulin release, WT mouse intestinal segments (n=10), baseline (ng/mg protein): 0.33
- zonulin release, WT mouse intestinal segments (n=10), post-gliadin exposure (ng/mg protein): 0.61
Substance: PT-gliadin (gliadin digested with pepsin and trypsin) (peptide)
